{
  "source": "patent US20140199327A1",
  "about": "“METHODS OF PROMOTING DIFFERENTIATION” (Genentech, Inc., priority 2011, published 2014)",
  "key": {"[1]": {"target": "T1, SENP5-Flag (human SENP5 with C-terminal Flag epitope) (human, UniProt Q96HI0 1-755, limits assumed)", "T1 sequence (looked up)": "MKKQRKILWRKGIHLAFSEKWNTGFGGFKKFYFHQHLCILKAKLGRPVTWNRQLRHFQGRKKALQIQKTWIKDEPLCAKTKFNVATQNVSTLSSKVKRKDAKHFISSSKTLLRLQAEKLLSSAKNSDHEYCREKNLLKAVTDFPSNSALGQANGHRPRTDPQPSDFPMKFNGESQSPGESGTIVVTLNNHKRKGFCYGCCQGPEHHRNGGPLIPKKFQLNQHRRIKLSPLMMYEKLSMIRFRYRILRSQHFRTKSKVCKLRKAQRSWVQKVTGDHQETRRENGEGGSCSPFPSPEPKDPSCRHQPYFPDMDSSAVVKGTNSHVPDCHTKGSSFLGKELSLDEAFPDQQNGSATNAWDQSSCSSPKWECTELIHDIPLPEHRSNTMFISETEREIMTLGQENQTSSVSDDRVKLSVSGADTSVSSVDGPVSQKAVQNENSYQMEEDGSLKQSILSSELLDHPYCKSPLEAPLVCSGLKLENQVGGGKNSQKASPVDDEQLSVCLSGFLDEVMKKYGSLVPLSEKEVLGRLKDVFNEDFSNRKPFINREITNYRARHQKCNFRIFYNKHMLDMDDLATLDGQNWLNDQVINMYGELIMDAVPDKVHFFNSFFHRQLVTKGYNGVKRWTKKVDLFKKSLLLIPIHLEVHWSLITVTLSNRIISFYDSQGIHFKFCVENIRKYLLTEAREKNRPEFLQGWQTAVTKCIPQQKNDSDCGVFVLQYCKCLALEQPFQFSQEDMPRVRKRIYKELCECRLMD", "experiment": "Flag immunoprecipitation of DUBs from 293T cells cotransfected with ID2, MG-132 treated (FIG. 2B)", "protocol": "(§1) FIG. 2. […] (A) Western blot (WB) analysis of 293T transfected with Flag-tagged deubiquitinases (DUBs) or an empty vector (−). Where indicated, cells were treated with […] MG-132 for 4 hr. (B) Flag-tagged DUBs were immunoprecipitated (IP) from 293T cells cotransfected with ID2 and treated with […] MG-132 for 6 hr."}, "[2]": {"target": "T2, OTUD5-Flag (human OTUD5 with C-terminal Flag epitope) (human, UniProt Q96G74 1-571, limits assumed)", "T2 sequence (looked up)": "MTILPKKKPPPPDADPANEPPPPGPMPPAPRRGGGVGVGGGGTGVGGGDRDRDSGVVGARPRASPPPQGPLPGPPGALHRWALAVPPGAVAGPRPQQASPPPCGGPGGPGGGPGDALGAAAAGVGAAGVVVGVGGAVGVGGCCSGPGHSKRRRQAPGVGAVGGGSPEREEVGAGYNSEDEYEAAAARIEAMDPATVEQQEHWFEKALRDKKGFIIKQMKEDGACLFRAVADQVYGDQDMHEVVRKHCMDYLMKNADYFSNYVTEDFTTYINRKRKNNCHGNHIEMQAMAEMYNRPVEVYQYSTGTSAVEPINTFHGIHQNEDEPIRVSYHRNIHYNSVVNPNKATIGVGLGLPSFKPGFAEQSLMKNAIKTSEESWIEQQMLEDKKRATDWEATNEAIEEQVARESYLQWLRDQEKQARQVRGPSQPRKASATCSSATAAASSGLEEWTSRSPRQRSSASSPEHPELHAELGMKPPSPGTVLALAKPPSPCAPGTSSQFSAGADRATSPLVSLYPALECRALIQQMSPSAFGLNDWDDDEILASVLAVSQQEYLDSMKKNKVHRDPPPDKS", "experiment": "Flag immunoprecipitation of DUBs from 293T cells cotransfected with ID2, MG-132 treated (FIG. 2B)", "protocol": "as §1"}, "[3]": {"target": "USP9Y-Flag (human USP9Y with C-terminal Flag epitope) (human, UniProt O00507 1-2555, limits assumed)", "sequence (O00507 whole entry)": "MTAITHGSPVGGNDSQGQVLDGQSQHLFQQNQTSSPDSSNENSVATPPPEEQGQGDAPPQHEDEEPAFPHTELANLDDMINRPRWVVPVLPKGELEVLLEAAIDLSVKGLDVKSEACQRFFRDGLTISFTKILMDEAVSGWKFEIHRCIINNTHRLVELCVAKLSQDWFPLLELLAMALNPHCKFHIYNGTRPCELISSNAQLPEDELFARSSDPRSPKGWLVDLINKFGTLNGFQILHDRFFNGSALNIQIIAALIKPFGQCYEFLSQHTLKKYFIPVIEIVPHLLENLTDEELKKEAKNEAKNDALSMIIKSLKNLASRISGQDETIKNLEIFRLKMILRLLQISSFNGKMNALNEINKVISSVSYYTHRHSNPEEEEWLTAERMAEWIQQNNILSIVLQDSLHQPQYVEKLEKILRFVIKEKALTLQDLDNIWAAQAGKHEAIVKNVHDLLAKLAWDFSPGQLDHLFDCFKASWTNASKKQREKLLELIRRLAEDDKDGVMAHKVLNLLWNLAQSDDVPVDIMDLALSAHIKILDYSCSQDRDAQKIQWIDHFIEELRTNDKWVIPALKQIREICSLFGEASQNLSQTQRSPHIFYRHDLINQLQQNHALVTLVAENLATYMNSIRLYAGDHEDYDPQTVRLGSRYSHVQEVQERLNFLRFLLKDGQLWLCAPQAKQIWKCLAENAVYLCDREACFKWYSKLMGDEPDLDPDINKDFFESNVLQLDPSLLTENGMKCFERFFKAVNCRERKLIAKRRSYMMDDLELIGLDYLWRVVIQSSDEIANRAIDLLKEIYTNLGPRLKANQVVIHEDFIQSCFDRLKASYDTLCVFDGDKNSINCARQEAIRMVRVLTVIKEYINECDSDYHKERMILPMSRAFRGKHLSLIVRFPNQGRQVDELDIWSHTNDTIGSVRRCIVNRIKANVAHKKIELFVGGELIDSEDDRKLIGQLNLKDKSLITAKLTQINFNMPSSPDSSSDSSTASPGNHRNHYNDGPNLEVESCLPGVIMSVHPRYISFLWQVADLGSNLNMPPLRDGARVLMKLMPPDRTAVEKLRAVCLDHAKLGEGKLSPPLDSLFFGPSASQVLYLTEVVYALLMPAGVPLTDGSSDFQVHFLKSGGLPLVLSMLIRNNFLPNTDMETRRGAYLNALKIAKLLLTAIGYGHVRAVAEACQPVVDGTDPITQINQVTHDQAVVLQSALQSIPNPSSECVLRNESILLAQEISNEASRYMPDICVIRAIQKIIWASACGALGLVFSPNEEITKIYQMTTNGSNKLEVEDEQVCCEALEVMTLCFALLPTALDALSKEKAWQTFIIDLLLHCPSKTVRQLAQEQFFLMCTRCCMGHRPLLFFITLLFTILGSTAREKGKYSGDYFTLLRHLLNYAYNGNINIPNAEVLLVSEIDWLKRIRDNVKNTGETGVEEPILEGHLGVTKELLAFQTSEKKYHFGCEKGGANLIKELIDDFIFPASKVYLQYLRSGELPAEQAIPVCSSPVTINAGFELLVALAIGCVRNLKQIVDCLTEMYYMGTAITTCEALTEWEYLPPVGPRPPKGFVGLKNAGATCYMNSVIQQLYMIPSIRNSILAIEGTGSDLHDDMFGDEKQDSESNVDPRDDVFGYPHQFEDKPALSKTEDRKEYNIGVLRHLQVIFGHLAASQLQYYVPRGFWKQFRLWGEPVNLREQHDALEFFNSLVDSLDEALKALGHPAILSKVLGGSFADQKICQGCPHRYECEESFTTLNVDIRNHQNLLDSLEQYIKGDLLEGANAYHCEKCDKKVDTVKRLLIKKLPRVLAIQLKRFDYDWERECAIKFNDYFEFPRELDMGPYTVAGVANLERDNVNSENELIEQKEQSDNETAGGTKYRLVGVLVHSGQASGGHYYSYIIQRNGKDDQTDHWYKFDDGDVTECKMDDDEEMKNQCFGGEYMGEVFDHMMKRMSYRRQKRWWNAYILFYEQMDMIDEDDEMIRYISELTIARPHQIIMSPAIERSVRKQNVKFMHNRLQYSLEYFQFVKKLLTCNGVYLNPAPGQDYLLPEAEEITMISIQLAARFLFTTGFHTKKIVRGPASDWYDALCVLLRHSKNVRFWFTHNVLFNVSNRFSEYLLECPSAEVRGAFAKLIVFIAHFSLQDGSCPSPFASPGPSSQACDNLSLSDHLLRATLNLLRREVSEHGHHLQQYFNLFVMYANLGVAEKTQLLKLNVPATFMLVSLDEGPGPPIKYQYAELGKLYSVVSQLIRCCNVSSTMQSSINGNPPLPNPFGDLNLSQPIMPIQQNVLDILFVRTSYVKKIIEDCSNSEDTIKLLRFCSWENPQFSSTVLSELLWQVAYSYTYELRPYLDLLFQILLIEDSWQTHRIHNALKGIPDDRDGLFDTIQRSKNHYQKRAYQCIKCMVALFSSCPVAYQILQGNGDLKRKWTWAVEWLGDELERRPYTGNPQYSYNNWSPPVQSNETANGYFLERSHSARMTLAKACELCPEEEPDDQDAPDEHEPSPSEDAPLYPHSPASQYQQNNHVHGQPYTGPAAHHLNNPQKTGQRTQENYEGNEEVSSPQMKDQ", "experiment": "Flag immunoprecipitation of DUBs from 293T cells cotransfected with ID2, MG-132 treated (FIG. 2B)", "protocol": "as §1"}, "[4]": {"target": "T3, USP1-Flag (wild-type human USP1 with in-frame C-terminal Flag epitope) (human, UniProt O94782 1-785)", "T3 construct": "Synthesised human USP1 cDNA in pRK2001, expressed in 293T cells; also called USP1 wild-type; WT", "T3 sequence": "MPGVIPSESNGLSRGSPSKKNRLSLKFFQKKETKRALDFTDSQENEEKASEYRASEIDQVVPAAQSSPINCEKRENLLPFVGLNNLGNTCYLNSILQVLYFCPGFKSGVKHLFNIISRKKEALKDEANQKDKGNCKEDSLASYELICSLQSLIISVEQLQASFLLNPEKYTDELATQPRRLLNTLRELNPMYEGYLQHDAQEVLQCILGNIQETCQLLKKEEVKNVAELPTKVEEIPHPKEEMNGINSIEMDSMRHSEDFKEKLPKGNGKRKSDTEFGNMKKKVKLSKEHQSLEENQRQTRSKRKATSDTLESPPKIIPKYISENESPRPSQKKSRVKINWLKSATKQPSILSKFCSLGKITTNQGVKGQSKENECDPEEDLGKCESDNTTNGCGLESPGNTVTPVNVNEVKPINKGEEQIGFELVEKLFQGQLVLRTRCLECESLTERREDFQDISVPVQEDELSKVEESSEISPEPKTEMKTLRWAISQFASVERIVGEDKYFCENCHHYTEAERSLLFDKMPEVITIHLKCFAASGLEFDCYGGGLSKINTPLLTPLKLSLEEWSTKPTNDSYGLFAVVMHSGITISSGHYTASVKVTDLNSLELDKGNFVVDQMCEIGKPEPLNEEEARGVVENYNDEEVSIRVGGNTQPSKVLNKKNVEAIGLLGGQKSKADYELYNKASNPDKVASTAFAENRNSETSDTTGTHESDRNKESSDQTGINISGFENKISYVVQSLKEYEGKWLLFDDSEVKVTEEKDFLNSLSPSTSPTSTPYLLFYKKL", "experiment": "Flag immunoprecipitation of DUBs from 293T cells cotransfected with ID2, MG-132 treated; blot for ID2 (FIG. 2B)", "protocol": "as §1"}},
  "data": [
    {"binder": "ID2 (co-transfected / co-expressed in 293T cells) (other, ID2 was amplified from Jurkat-derived cDNA; The methods describe only a C-terminal Flag version in pRK2001) MKAFSPVRSVRKNSLSDHSLGISRSKTPVDDPMSLLYNMNDCYSKLKELVPSIPQNKKVSKMEILQHVIDYILDLQIALDSHPTIVSLHHQRPGQNQASRTPLTTLNTDISILSLQASEFPSELMSNDSKALCG", "values": [
      {"measurement": "binding result", "setting": "[1]", "result": "no binding"},
      {"measurement": "binding result", "setting": "[2]", "result": "no binding"},
      {"measurement": "binding result", "setting": "[3]", "result": "no binding"},
      {"measurement": "binding result", "setting": "[4]", "result": "binds"}
    ]}
  ]
}
